Data on one molecule can be found in PMC3265130 (2011).

The target of the assay is T1, H3(1-15Y)K9me3 (Homo sapiens, H3K9me3).
T1 chain: ARTKQTARKSTGGKAY
The experiment in a line: ITC.

B1: Su(Var)205 17-76 (protein)
chain: not shown
Take B1: the Kd stood at 300 nM.

A word on the Kd: it is the free concentration of one partner at which half of the binding sites on the other are occupied at equilibrium, for simple one-to-one binding.
